Experiments:
Assay in all cases: recognition by CLDN6 CAR-T cells, non-clinical study; assay not described
[1] = biological target: T1, CLDN9 (UniProt O95484 1-217, limits assumed)
T1 construct: also called claudin 9
T1 sequence (looked up): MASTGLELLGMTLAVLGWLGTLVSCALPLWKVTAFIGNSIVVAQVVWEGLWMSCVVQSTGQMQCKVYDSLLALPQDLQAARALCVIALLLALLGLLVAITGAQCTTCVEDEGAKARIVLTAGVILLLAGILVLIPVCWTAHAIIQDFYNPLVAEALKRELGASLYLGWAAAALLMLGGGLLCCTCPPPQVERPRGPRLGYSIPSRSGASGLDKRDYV

[2] = biological target: T2, CLDN4 (UniProt O14493 1-209, limits assumed)
T2 construct: also called claudin 4
T2 sequence (looked up): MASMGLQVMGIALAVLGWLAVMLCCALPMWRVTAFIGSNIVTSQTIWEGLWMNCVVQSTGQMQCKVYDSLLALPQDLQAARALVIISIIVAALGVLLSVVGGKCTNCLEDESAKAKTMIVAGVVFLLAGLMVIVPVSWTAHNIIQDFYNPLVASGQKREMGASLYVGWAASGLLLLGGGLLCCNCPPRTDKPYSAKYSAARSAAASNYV

[3] = biological target: T3, CLDN3 (UniProt O15551 1-220, limits assumed)
T3 construct: also called claudin 3
T3 sequence (looked up): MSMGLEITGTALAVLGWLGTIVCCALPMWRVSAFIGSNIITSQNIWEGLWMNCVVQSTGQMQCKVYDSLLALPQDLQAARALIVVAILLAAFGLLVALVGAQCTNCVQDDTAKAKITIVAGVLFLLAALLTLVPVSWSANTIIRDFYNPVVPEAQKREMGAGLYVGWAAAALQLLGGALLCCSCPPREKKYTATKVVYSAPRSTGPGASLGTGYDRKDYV

Measured: binding result

B1: CLDN6-CAR-CD8h-BBz (other)
chain: EVQLQQSGPELVKPGASMKISCKASGYSFTGYTMNWVKQSHGKNLEWIGLINPYNGGTIYNQKFKGKATLTVDKSSSTAYMELLSLTSEDSAVYYCARDYGFVLDYWGQGTTLTVSSGGGGSGGGGSGGGGSDIVLTQSPSIMSVSPGEKVTITCSASSSVSYMHWFQQKPGTSPKLSIYSTSNLASGVPARFSGRGSGTSYSLTISRVAAEDAATYYCQQRSNYPPWTFGGGTKLEIKRSDPATTTPAPRPPTPAPTIASQPLSLRPEACRPAAGGAVHTRGLDFACDIYIWAPLAGTCGVLLLSLVITLYCKRGRKKLLYIFKQPFMRPVQTTQEEDGCSCRFPEEEEGGCELRVKFSRSADAPAYKQGQNQLYNELNLGRREEYDVLDKRRGRDPEMGGKPRRKNPQEGLYNELQKDKMAEAYSEIGMKGERRRGKGHDGLYQGLSTATKDTYDALHMQALPPR
notes: Chimeric antigen receptor, tested on the surface of retrovirally transduced human (or murine) T cells; also called CLDN6-CAR-BBz
no binding: [1] | [2] | [3]
